The domain aggregation screens of Martell et al. (2025)

Test: soluble fraction after stress (log2 fold change); higher = more stays soluble; pooled small domains, quantitative proteomics
Details: stress: pH 4
Outline: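 How much of each domain stays soluble after acid stress, expressed as a fold change, is used to gauge aggregation propensity. Pooled custom libraries of small domains underwent pH 4 stress before high-throughput quantitative proteomics. A higher log2 value means more of the domain stayed soluble.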

Sequence | soluble fraction (log2)
HMGQVEVPDVVGMTQERAITTLTEAKLVAQIQLTPADVAKGLVAAQSPRAGLKIGEGSFVTIEVSTGPVI | 0.229
HMGQKASEVEKIFVELQQQIIRGDLPPGYRLVESQIAAQFGVSRTPARLAIERLATAGLVAHETNRGATVH | -0.36
HMQETMTNDEVISLTKAGLSSSIIIGKIRSSATNFDLSTDSLIKLKQAGVSDETVAAMLEAKS | 0.181
HMANGTVKWFNTTKGFGFIAPETGGKDVFVHISAVERSGLTGLADDQKVTFDVEAGRDGRESAVNLAL | -0.613
HMESEIYKKIEKSRLLELAFTKSQKGDLTGAYDLYYQAFTKYDVIADNQNRYFEDFISLIRRKQQQD | -0.822
HMQDTYLYPVQHNGKVRLQVELPAKGLPEDLVRLALAHPKVVEWLNGRIPTKTIAVPGRIINMVLPNQ | 0.18
HMVPQAVQDIKAYLASGALPYIGPATAKKIVAMFGSDALDVIAEHPEQLTAIRGLNEEKANAIHQEFRRQF | 0.0364
HMDFNDPTMEKSLVELPAMSNSTLRDLSENNIKKLEELAEMSVGELMDIASKISESDASALIMEARKPWF | -0.741
HMSLAISGRNQLHGIIEEVRSDGLLSQIYLRVGDQVLTAVITRDAVAELKLKRGDTAVAIMKSTEVMIARE | 0.0191
HMAMNITQRHQEILAVIKQEKHITVSEISKLLGVSEVTIRKDFNYLEEKNLIYRHHGGASLNN | -0.0786
HMIKNDIGKFIKLYRETHQWSQRELAEHLGVSQRNVSYYEKGERIPPADVLKKLSTLFDVPVDVLLGLK | -0.274
HMEPQSRTAYRLIEAMIVTHELPPGSRISEASLSAKLGIGRTPIREALQRLSFEGTVKIVPRSGAFVSEI | 0.183
HMLGSGSKEQQLVILNNILERQVQAFNLQGGQEYPMVTLKNFYNTLSKMIENAGLKNVENYFVNPDVGKQM | -0.0872
HMEVPVQYIKFKIPENHFWAKKKVADIILPPETLLVLLQRGSDKMIPDGETVLLPEDTLVLIAKAPG | -0.783
HMSFPQVELNTNKGRIVLELNSEKAPKTVANFLEYVRDGFYDGVIFHRVIDGFMIQGGGFDENFKEKA | -0.275
HMTLRDRDQALEELWGQLADVPMDSETERLLEPFMGWGVGVSRDEIWHWFDRRHSKGIGHLLYS | -1.67
HMVELRDGSLPLARGSVGDLVAEVQRKLGVAADGIFGPQTERAVRAFQARAGLASDGIVGPLTWSALFGA | 0.117
HMSLTMPKLIGMHLFQAERTLNYYGFQYKVEGPDSASVVIDQYPKEGVTVDPHYPITLKIGPSA | 0.206
HMGEVYPSDIVEKMKQANLHILEGTLYPLLTRLKNAGLLNYRWVESVTGPPRKYFVMTEEGKAAF | 0.0276
HMKSARDDILSALDKAGEPLSMKDIAELSGRKLSTLRAQMTRLVAEGAVQATAAAHSPDRKYRK | -0.133
HMQSAKLSYSDFMQKVNAGDVVSVKIQGPKISGVTTGGGKFMTYAPEDPTLVSTLMQKKVEVMAEP | 0.173
HMTKDVIEIVDGNKFVFHKTIATDSVSSVINKYHISEADFRTWNELTGDMKVGEEYIVQLSLH | -0.576
HMPLSDAEKAAAIATQAKERALKLSPEMISYLLRHASRDMRTLSMLVVALDQYTLEQKRPVTLPLLRELLS | -0.0153
HMGDAIPVPDVSGFSEDQAMNNLRKVGLRPKATYVADDNTAKGYVTGTSPAKNIEVAPDSEVIVYVSSGP | 0.241
HMEYKKKIGELLIDGNKKLKAANIDTYILDTQLLLGKVLGKDKLYLITNKDEEVSNFKEREFYSLIEKRI | -0.304
HMEAVGLTPRQGDVLALLLQGKPNKLIARDLNLSVETVKDHVAAVLRALGVSTRTQAVLAVSQMQQQAAQ | -0.221

Sequence | soluble fraction (log2)
HMDINLSENLVRLRHAKKLTQEQLADFLGVTKASVSKWETRQSLPDILLLPRLAAFYGVTVDELIGYEP | ≥ 0.43
HMSSRSLTYSDFIERVDAGQVDAVTLDGERIVIRAKDGNTYVAIKPQGEDVTGSLTRDLIAKGVDVEAEPQ | 0.0187
HMDRLTISTLGNGLFRVNGAEAEATVYNLSGNVVKVVPADEVIDLSSLAKGVYIIHVDGEAFKVI | -0.0808
HMENEIVMPVQINGKKRGDLTIARDADQASIQKAVLELDFVKAALNGGSPKKVIVVPQRIVNVV | 0.127
HMVKDLEIETIRLNNLLASDAEEVLKSLGGAKPTYKAVAVPGSNSLVIEGTKADLIKLKSIINALEDGS | -0.316
HMLEAMDSDEAAKVIEQIVNERADFVRSKGMGAIGPLMGPVMGALRGKVDGKQANELLTAAIKKLL | 0.177
HMYVPEVPVPDLLGRSEEEAKNLIEDLGLVFKVSKREYSKEYDEGHVMEQSVDEGAKVKENYPVEVVISR | -0.325
HMYYIITNGKYWVIENPIRPGEYMESTKSSNAKQFTFKQAKNLLNARSKKLGWIRNGYSMVGED | 0.427
HMRSAKEYKAIREEIYRFIGAYITKHVYAPSNKEIAEAVGISGTTVHRHLIDMIDEGILETD | -1.29
HMGGGTPEERLATLAAIAERQEMLLERLGPNNPLVSLGQYSRTLSRMVQLAGFKDASQYFNELPLDFQMPE | -0.437
HMDMSDFEVVRDMYLTGKVWNAGDIVEAKGITGEVVRKGTNYLSFVDKNGKVHKAWLHEIEL | -0.968
HMTSQVTVHVVGAVEKPGVVTLDAPSRVQDALEAAGGALPEAELSGVNLARELFDGEQIVVPAQGEDV | 0.0598
HMGDAVYSKVKDLVNTYNALAKQTGKSDLVSISQSRTWMVNDTKAHEVQWNKIGITIEDDQTLTI | -0.13
HMTSPQGIERFLASGVIEGVGKAMAARIVAVFGGQTLEIIEKQPHRLREVRGIGVKTAEKIHASYQEKA | -0.203
HMLPYKGTVAVSLAVLHKAVGVGTADMLKAVGTLRQGTEVTVTGRNGPFAQLKNGLWMKESFLE | 0.193
HMREVPHGEYEVKIEKLELVESKAGDPMVTVWFKVLAGDYKGSMIFMNQVITKGFQIHIMNEFLR | -1.1
HMAIDWVQIKAEYISGTMSASKLAEKHGVSVYAIRKRSGKERWQELRRQNQSETANKIAEKI | -0.0638
HMEELGKVRPELDGNEIAKVLGITPGPVLGRAYTYLLSVRLDEGPIGPDVARERLLAWWAEQPES | -2.01
HMPASTSIPYSDFISRVESGDVQEAKIGESAITGTYKDGSQFKTVKPPTLDTNLMPTLIQNKVNVVGVEP | 0.0215
HMTEVPSLSSLKIGDLIFYRNNKGAIAHSAIITSFYNGRPFISQHTFNALNITYVKDWASKMHFIKIW | -0.934
HMKKEETEAEELEEKFTSAQIKQAYGILNDPRYKQGNYSGAVNVINKIAPGLADHPDVKNALKRANEEL | -0.323
HMYFEDEELDRFVGTPAGAYTEEDVEEFRDVLLSLDIEEVPSWVRSLQLRGIDFPETLRPELYLL | -2.72
HMQGNGKVATELLKDIIASDNLYINAMRMLVMHYNSKGTNQVEMVKLLHNILDLVPDDEYANEILKSAKKA | -0.637
HMQSMEIDENEIPSIDKLSEYIEYFKRIYNALFDDKQLAITNIDVLERHFANNFNTLRFKMDE | -0.534
HMTSLQDLLEELRVIRETLTGSQVLSDMQLFSQLRNLGDIKAALTRMQDNPAAARMVGEVDKLLETMFAS | -1.56
HMNTRWDDAAQTWLRKVIEQQPVLVQISAAKRLRDQAEQRAREAGEEVVTEQHVKRAGLELGFGEP | -0.239

Sequence | soluble fraction (log2)
HMGLNELQVKLNEAMQRLSLKHRTVVVMHDIEGIPHDEIAKIVGVSVGTIRSRLFYARRQLQADLGEY | -0.896
HMAIELTPRQLDIIELVRKHAPITGEQIAELLGVTRPSIRSDLGLLVMLGYIDAKPKVGYFAGPRM | -0.893
HMADAGQTTAATELKQAPNAGSATISQLSAGQTLQIGTRQGAWYQVKTPQGEGWVRMLSVRLQ | 0.0688
HMRLYTQDVAVLNRDVIQGEVITSDMVTTVNVHKRTVPTGALNLSEIPGNVAKFNIPASIPITASMVTK | -0.171
HMGDADDLTRIKGIGPKLSKTLNELGIYHFRQIAGWQSDEADWVDDYLSFKGRVMREQWIEQAQKFAS | -0.292
HMPMTRILFLPDDRTILQFDSAEPAEDLVSAVNAGRWLPPEPYRSGFGLGLPENRLRASRQGALVVVMLS | -1.19
HMNMLGSNIKYLRNRHKLSQQELSEKLGVPRSSLSDYERGHTQVGLDSLIKLADIFDVKIDDLLRSNLSHR | -0.261
HMDDHKQHLIDFYHSRKRMPTYTEMMALFGYKSKNAVARLVEKMIDAGIVTKDKLGKLLPTTLFDSVPL | -0.0996
HMIPENKRVLISLTYIYGIGKKISQDILEKANIDSSIKTSQLTDDDVARIRQLIENDYLVEGELRV | 0.00777
HMADKNIIGVLSAADNLGKVRITTANGEKYIITVPDGLSDIVKTYWEEEVSVKYVIEKRRKILVDIDG | -0.47
HMQNVKIKAEVKGEVISPGVYELDEESRIQDLIDASGGFSDKAYYDNINLSMKLKDEMVLVVYDKDKI | -1.35
HMTKQRSIILDLLKANQDRHLTAEEMLELLNQNHTPVSKATLYRYLDMLVSQNAVRKFIIDDQPSAGYQYL | -0.0717
HMLRISLAAARVNAEMTQEDVAREMHVSKNTVVNWEKGKSEPTISQSRELSKLYNMPLEYIFYL | 0.258
HMNEPSSYGYAISVALDRNGLGTVKGGTLYPLLARLEQAAHVETRWEAGDGGPGRKYYTITDSGRS | -0.41
HMGPKALLKIPGLQEVDAELLFKEGYKSISAVASADPEMLKAIPGVDEQKVTEWVTGAEQILSQQVNKGA | 0.25
HMTPGPYETLKPAPLGSYIEPKIGFATAIEIARKEAVQLGIKTEAGGIWYGGDFPFYNVSFFDPDD | -0.985
HMSQDTLIENGKVFLIHKVVAGQTLYGLSKAYNITIEDIIKYNPQAENGIKIGEDIKIFLKEE | -1.1
HMQKIENYDQFVQAFKRLSGLDLKLYKENQMKRRINNFINNHGFKENYDQFFQAITGNKELYNAFFKHLTI | -0.395
HMETIELSAPGGVRLDKLIADGTELSRSAAVKLIEQGNVLVNGSPAGKKDIPAAGAAVEITLPEPQ | -0.255
HMSEMDNMEWVREQYFQNMIYEIGEWVRDKKTGIVGEVVKRGTNYVTVVQEDFSLHKIWLEDLETTEK | -0.966
HMKKPKTVLSEEQKEFIINQAQDGVSAYDIARILFPSVNVTNLSKEVIDVAEFIRDTDIKLLADSE | -0.132
HMENAEALLKKLSGVLSDYEYKMLMLYADGKTPRRIAQETGQSAKSVSNALFRARTKLKELYEDQ | -0.455
HMNAKKSTLQLDLLKQLLEGNKISLKDFSLSNEISIRTAQRYIEDLLEIFEKNIVKEGDFYSFIS | -1.34
HMQVTPQVLRLLDVLGDKELSLRQIAEALGLSDRKNIMRNYVVPALDSGRVVRTVPNKPNSRFQKYRK | 0.0808
